Changes are numbered by the printed parent chain. Names may count otherwise. “Also recorded” adds a separate entry of the source.
B1: L92Q: variant of the O-methyltransferase from Myxococcus xanthus (MxSafC_L92Q) (protein)
chain: MIHHVELTQSVLQYIRDSSVRDNDILRDLREETSKLPLRTMQIPPEQGQLLSLLVRLIGARKTLEVGVFTGYSTLCAALALPADGRVIACDQSEEWVSIARRYWQRAGVADRIEVRLGDAHHSLEALVGSEHRGTFDLAFIDADKESYDFYYEHALRLVRPGGLIILDNTLWSGKVADPSVVGDPETDSLRRINAKLLTDERVDLSMLPIADGLTLARKR
modifications: MxSafC_L92Q
B2: W96A: variant of the O-methyltransferase from Myxococcus xanthus (MxSafC_W96A) (protein)
chain: B1 chain with Q92L, W96A
modifications: MxSafC_W96A
B3: T40P/S173H: double mutant variant of the O-methyltransferase from Myxococcus xanthus (MxSafC_T40P_S173H) (protein)
chain: B1 chain with T40P, Q92L, S173H
modifications: MxSafC_T40P_S173H
B4: M5: quintuple mutant of MxSafC combining mutation T40P/L92Q/W96A/D119P/S173H (protein)
chain: B1 chain with T40P, W96A, D119P, S173H
modifications: MxSafC_M5
notes: quintuple mutant of MxSafC combining mutation T40P/L92Q/W96A/D119P/S173H
B5: T40P: variant of the O-methyltransferase from Myxococcus xanthus (MxSafC_T40P) (protein)
chain: B1 chain with T40P, Q92L
modifications: MxSafC_T40P
B6: S173H: variant of the O-methyltransferase from Myxococcus xanthus (MxSafC_S173H) (protein)
chain: B1 chain with Q92L, S173H
modifications: MxSafC_S173H
B7: D119P: variant of the O-methyltransferase from Myxococcus xanthus (MxSafC_D119P) (protein)
chain: B1 chain with Q92L, D119P
modifications: MxSafC_D119P

Assay: Biotransformation of 3-hydroxyphloretin with lysed E. coli BL21(DE3) cells expressing MxSafC wild-type or variants (LC-MS)
Assay type: biochemical
Details: 3 mM 3-hydroxyphloretin, 3 mM S-adenosylmethionine, 25° C., 24 hours; for product specificity towards hesperetin dihydrochalcone: compared with wild-type MxSafC, FIG. 10 dark grey; for enzyme activity (conversion of 3-hydroxyphloretin): FIG. 10 light grey bars
Description: FIG. 10: Biotransformation of 3-Hydroxyphloretin with lysed E. coli BL21 (DE 3) cells, which express MxSafC (wild-type (wt), cf. SEQ ID NOs: 13, 14, 55), or specific variants or mutants thereof (cf. SEQ ID NOs: 56 to 76). Hesperetin dihydrochalcone as well as homoeriodictyol (HED) dihydrochalcone are the products. Conversion of 3-hyroxyphloretin (30HP) shown in light grey, product specificity towards hesperetin dihydrochalcone is shown in dark grey.
MxSafC mutant variants correspond to SEQ ID NOs: 56 to SEQ ID NO: 76. These were synthesized (BioCat GmbH, Heidelberg, Germany) and cloned into pET28a between NcoI and HindIII restriction sites, respectively. SEQ ID NOs: 13, 14 and 55 show the respective wild-type sequence. By artificial design, certain mutants were created to optimize the activity and/or specificity of the MxSafC enzyme. Interesting single, double and quintuple mutants could be identified, as shown in detail in the results in FIG. 10.
First, various positions within MxSafC (SEQ ID NO: 14) were randomly mutated. All mutants were characterized and checked for activity. In a second round, targeted mutations and combinations thereof were tested in an iterative manner to identify suitable mutants for commercial purposes that have a good activity and conversion rate, but at the same time a good or even improved product specificity. Indeed, certain variants could be identified that fulfill these needs.
30 E. coli BL21(DE3) cells, each containing a plasmid from Table 1, were used to inoculate 5 ml of LB medium (Carl Roth GmbH, Karlsruhe, Germany) with the corresponding antibiotic. After incubation for 16 h (37° C., 200 rpm), 20 ml TB medium (Carl Roth GmbH, Karlsruhe, Germany) were inoculated with an OD600 of 0.1 from these cultures. These main cultures were incubated (37° C., 200 rpm) until an OD600 of 0.5-0.8 was achieved. After addition of 1 mM isopropyl-β-D-thiogalactopyranoside, the cultures were incubated for a further 16 h (22° C., 200 rpm). The main culture was centrifuged (10 min, 10,000 rpm), the pelleted cells were decomposed using the B-PER protein extraction reagent (Thermo Fisher Scientific, Bonn, Germany) according to the manufacturers specifications. After additional centrifugation (10 min, 14,000 rpm) the supernatant was mixed with 3 mM 3-hydroxyphloretin, 3 mM S-adenosylmethionine, 0.1 mM MgCl2. The reaction mixture was incubated at 25° C. for 24 hours. After stopping the assay with 20% trichloroacetic acid ([…] final concentration) the sample was centrifuged and the supernatant used for LC-MS analysis.

Row | Molecule | product specificity towards hesperetin dihydrochalcone | enzyme activity (conversion of 3-hydroxyphloretin)
1 | B1 | nearly balanced | –
2 | B2 | performed better than the wild-type | –
3 | B3 | performed better than the wild-type; also recorded: a good specificity | a technically reasonable activity
4 | B4 | performed better than the wild-type | –
5 | B5 | performed better than the wild-type | particularly favorable
6 | B6 | performed better than the wild-type | particularly favorable
7 | B7 | nearly balanced | –

Source: patent US20230279451A1, “METHODS FOR THE BIOCATALYTICAL MANUFACTURING OF DIHYDROCHALCONES” (SYMRISE AG, priority 2019, published 2023)
